Reference: publication PMC9669022

Tests used:
[1] = target: porcine brain tubulin (αβ-tubulin dimer) (porcine) (UniProt Q2XVP4)
[2] = target: porcine brain tubulin (αβ-tubulin dimer) (porcine) (UniProt Q2XVP4); remark: listed apart in the source
[3] = target: porcine brain tubulin (αβ-tubulin dimer) (porcine) (UniProt Q2XVP4); remark: listed apart in the source

For Pbkinesin-8B-MD (domain or fragment), the Km of the tubulin-stimulated ATPase (unpolymerised tubulin dimer, NADH-coupled assay) [1] was 7.6 µM and the Km of the MT-stimulated ATPase (GMPCPP-MTs, NADH-coupled assay) [2] was 2.5 µM.
“Pbkinesin-8B-MD-L2^KIF5B (domain or fragment)” gave a Km of the GMPCPP-MT-stimulated ATPase, fold change against WT [3] of 2 fold.
With “Pbkinesin-8B-MD-L12^KIF5B (domain or fragment)” the KmMT of the GMPCPP-MT-stimulated ATPase, fold change against WT [3] was 20 fold.
